According to FireProtDB (doi:10.1002/prot.1088):
Several values for one entry are separate records, joined by “and”; a condition that tells them apart may be missing. Equal entries are not always repeated.

B1: Lysozyme C, P61626 (parent)
chain: MKALIVLGLVLLSVTVQGKVFERCELARTLKRLGMDGYRGISLANWMCLAKWESGYNTRATNYNAGDRSTDYGIFQINSRYWCNDGKTPGAVNACHLSCSALLQDNIADAVACAKRVVRDPQGIRAWVAWRNRCQNRDVRQYVQGCGV

Variants of: B1
Details: Homo sapiens; pH 2.5; Thermal; DSC; Gly-HCl 0.05 M; reversible: yes; structure 1LZ1; whole UniProt chain shown

Variant	Tm	unfolding enthalpy (calorimetric)	unfolding enthalpy (van 't Hoff)
MKALIVLGLVLLSVTVQGKVFERCELARTLKRLGMDGYRGISLANWMCLAKWESGYNTRATNYNAGDASTDYGIFQINSRYWCNDGKTPGAVNACHLSCSALLQDNIADAVACAKRVVRDPQGIRAWVAWRNRCQNRDVRQYVQGCGV [R68A]	62.8 °C	101 kcal/mol	108 kcal/mol
MKALIVLGLVLLSVTVQGKVFERCELARTLKRLGMDGYRGISLANWMCLAKWESGGNTRATNYNAGDRSTDYGIFQINSRYWCNDGKTPGAVNACHLSCSALLQDNIADAVACAKRVVRDPQGIRAWVAWRNRCQNRDVRQYVQGCGV [Y56G]	53 °C	85.8 kcal/mol	87 kcal/mol
MKALIVLGLVLLSVTVQGKVFERCELARTLKRLGMDGYGGISLANWMCLAKWESGYNTRATNYNAGDRSTDYGIFQINSRYWCNDGKTPGAVNACHLSCSALLQDNIADAVACAKRVVRDPQGIRAWVAWRNRCQNRDVRQYVQGCGV [R39G]	64.6 °C	102 kcal/mol	107 kcal/mol
MKALIVLGLVLLSVTVQGKVFERCELARTLKRLGMDGYRGISLANWMCLAKWESGYNTRATNYNAGDRSTDYGIFAINSRYWCNDGKTPGAVNACHLSCSALLQDNIADAVACAKRVVRDPQGIRAWVAWRNRCQNRDVRQYVQGCGV [Q76A]	64.5 °C	97 kcal/mol	103 kcal/mol

Same assay, conditions: Homo sapiens; pH 2.7; 64.9 °C; Thermal; DSC; Gly-HCl 0.05 M; reversible: yes; structure 1LZ1; whole UniProt chain shown

Variant	ddG of mutation (higher = less stable)
MKALIVLGLVLLSVTVQGKVFERCELARTLKRLGMDGYRGISLANWMCLAKWESGYNTRATNYNAGDASTDYGIFQINSRYWCNDGKTPGAVNACHLSCSALLQDNIADAVACAKRVVRDPQGIRAWVAWRNRCQNRDVRQYVQGCGV [R68A]	-0.43 kcal/mol
MKALIVLGLVLLSVTVQGKVFERCELARTLKRLGMDGYRGISLANWMCLAKWESGGNTRATNYNAGDRSTDYGIFQINSRYWCNDGKTPGAVNACHLSCSALLQDNIADAVACAKRVVRDPQGIRAWVAWRNRCQNRDVRQYVQGCGV [Y56G]	2.32 kcal/mol
MKALIVLGLVLLSVTVQGKVFERCELARTLKRLGMDGYGGISLANWMCLAKWESGYNTRATNYNAGDRSTDYGIFQINSRYWCNDGKTPGAVNACHLSCSALLQDNIADAVACAKRVVRDPQGIRAWVAWRNRCQNRDVRQYVQGCGV [R39G]	-1.15 kcal/mol
MKALIVLGLVLLSVTVQGKVFERCELARTLKRLGMDGYRGISLANWMCLAKWESGYNTRATNYNAGDRSTDYGIFAINSRYWCNDGKTPGAVNACHLSCSALLQDNIADAVACAKRVVRDPQGIRAWVAWRNRCQNRDVRQYVQGCGV [Q76A]	-0.91 kcal/mol

Same assay, conditions: Homo sapiens; pH 2.7; Thermal; DSC; Gly-HCl 0.05 M; reversible: yes; structure 1LZ1; whole UniProt chain shown

Variant	Tm	change of melting temperature, mutant - wild type (higher = more stable)	heat capacity change of unfolding	unfolding enthalpy (calorimetric)	unfolding enthalpy (van 't Hoff)
MKALIVLGLVLLSVTVQGKVFERCELARTLKRLGMDGYRGISLANWMCLAKWESGYNTRATNYNAGDASTDYGIFQINSRYWCNDGKTPGAVNACHLSCSALLQDNIADAVACAKRVVRDPQGIRAWVAWRNRCQNRDVRQYVQGCGV [R68A]	66.3 °C	1.4 °C	1.51 kcal/mol/K	104 kcal/mol	–
MKALIVLGLVLLSVTVQGKVFERCELARTLKRLGMDGYRGISLANWMCLAKWESGGNTRATNYNAGDRSTDYGIFQINSRYWCNDGKTPGAVNACHLSCSALLQDNIADAVACAKRVVRDPQGIRAWVAWRNRCQNRDVRQYVQGCGV [Y56G]	56.7 °C	-8.2 °C	0.96 kcal/mol/K	96.8 kcal/mol	–
MKALIVLGLVLLSVTVQGKVFERCELARTLKRLGMDGYGGISLANWMCLAKWESGYNTRATNYNAGDRSTDYGIFQINSRYWCNDGKTPGAVNACHLSCSALLQDNIADAVACAKRVVRDPQGIRAWVAWRNRCQNRDVRQYVQGCGV [R39G]	68.6 °C	3.7 °C	1.74 kcal/mol/K	103 kcal/mol	–
MKALIVLGLVLLSVTVQGKVFERCELARTLKRLGMDGYRGISLANWMCLAKWESGYNTRATNYNAGDRSTDYGIFAINSRYWCNDGKTPGAVNACHLSCSALLQDNIADAVACAKRVVRDPQGIRAWVAWRNRCQNRDVRQYVQGCGV [Q76A]	67.8 °C and 68 °C	3.1 °C	1.65 kcal/mol/K	104 kcal/mol and 98.2 kcal/mol	113 kcal/mol

Same assay, conditions: Homo sapiens; pH 2.71; Thermal; DSC; Gly-HCl 0.05 M; reversible: yes; structure 1LZ1; whole UniProt chain shown

Variant	Tm	unfolding enthalpy (calorimetric)	unfolding enthalpy (van 't Hoff)
MKALIVLGLVLLSVTVQGKVFERCELARTLKRLGMDGYRGISLANWMCLAKWESGYNTRATNYNAGDASTDYGIFQINSRYWCNDGKTPGAVNACHLSCSALLQDNIADAVACAKRVVRDPQGIRAWVAWRNRCQNRDVRQYVQGCGV [R68A]	66.6 °C	106 kcal/mol	113 kcal/mol

Same assay, conditions: Homo sapiens; pH 2.84; Thermal; DSC; Gly-HCl 0.05 M; reversible: yes; structure 1LZ1; whole UniProt chain shown

Variant	Tm	unfolding enthalpy (calorimetric)	unfolding enthalpy (van 't Hoff)
MKALIVLGLVLLSVTVQGKVFERCELARTLKRLGMDGYRGISLANWMCLAKWESGYNTRATNYNAGDASTDYGIFQINSRYWCNDGKTPGAVNACHLSCSALLQDNIADAVACAKRVVRDPQGIRAWVAWRNRCQNRDVRQYVQGCGV [R68A]	69.1 °C	109 kcal/mol	117 kcal/mol

Same assay, conditions: Homo sapiens; pH 3; Thermal; DSC; Gly-HCl 0.05 M; reversible: yes; structure 1LZ1; whole UniProt chain shown

Variant	Tm	unfolding enthalpy (calorimetric)	unfolding enthalpy (van 't Hoff)
MKALIVLGLVLLSVTVQGKVFERCELARTLKRLGMDGYRGISLANWMCLAKWESGYNTRATNYNAGDASTDYGIFQINSRYWCNDGKTPGAVNACHLSCSALLQDNIADAVACAKRVVRDPQGIRAWVAWRNRCQNRDVRQYVQGCGV [R68A]	70.9 °C	114 kcal/mol	121 kcal/mol

Same assay, conditions: Homo sapiens; pH 2.78; Thermal; DSC; Gly-HCl 0.05 M; reversible: yes; structure 1LZ1; whole UniProt chain shown

Variant	Tm	unfolding enthalpy (calorimetric)	unfolding enthalpy (van 't Hoff)
MKALIVLGLVLLSVTVQGKVFERCELARTLKRLGMDGYRGISLANWMCLAKWESGGNTRATNYNAGDRSTDYGIFQINSRYWCNDGKTPGAVNACHLSCSALLQDNIADAVACAKRVVRDPQGIRAWVAWRNRCQNRDVRQYVQGCGV [Y56G]	58.5 °C	90.1 kcal/mol	92.3 kcal/mol

Same assay, conditions: Homo sapiens; pH 3.24; Thermal; DSC; Gly-HCl 0.05 M; reversible: yes; structure 1LZ1; whole UniProt chain shown

Variant	Tm	unfolding enthalpy (calorimetric)	unfolding enthalpy (van 't Hoff)
MKALIVLGLVLLSVTVQGKVFERCELARTLKRLGMDGYRGISLANWMCLAKWESGGNTRATNYNAGDRSTDYGIFQINSRYWCNDGKTPGAVNACHLSCSALLQDNIADAVACAKRVVRDPQGIRAWVAWRNRCQNRDVRQYVQGCGV [Y56G]	65.6 °C	97.8 kcal/mol	99.7 kcal/mol

Same assay, conditions: Homo sapiens; pH 2.69; Thermal; DSC; Gly-HCl 0.05 M; reversible: yes; structure 1LZ1; whole UniProt chain shown

Variant	Tm	unfolding enthalpy (calorimetric)	unfolding enthalpy (van 't Hoff)
MKALIVLGLVLLSVTVQGKVFERCELARTLKRLGMDGYGGISLANWMCLAKWESGYNTRATNYNAGDRSTDYGIFQINSRYWCNDGKTPGAVNACHLSCSALLQDNIADAVACAKRVVRDPQGIRAWVAWRNRCQNRDVRQYVQGCGV [R39G]	68.2 °C	109 kcal/mol	113 kcal/mol

Same assay, conditions: Homo sapiens; pH 2.81; Thermal; DSC; Gly-HCl 0.05 M; reversible: yes; structure 1LZ1; whole UniProt chain shown

Variant	Tm	unfolding enthalpy (calorimetric)	unfolding enthalpy (van 't Hoff)
MKALIVLGLVLLSVTVQGKVFERCELARTLKRLGMDGYGGISLANWMCLAKWESGYNTRATNYNAGDRSTDYGIFQINSRYWCNDGKTPGAVNACHLSCSALLQDNIADAVACAKRVVRDPQGIRAWVAWRNRCQNRDVRQYVQGCGV [R39G]	70.9 °C	113 kcal/mol	116 kcal/mol

Same assay, conditions: Homo sapiens; pH 3.1; Thermal; DSC; Gly-HCl 0.05 M; reversible: yes; structure 1LZ1; whole UniProt chain shown

Variant	Tm	unfolding enthalpy (calorimetric)	unfolding enthalpy (van 't Hoff)
MKALIVLGLVLLSVTVQGKVFERCELARTLKRLGMDGYRGISLANWMCLAKWESGYNTRATNYNAGDRSTDYGIFAINSRYWCNDGKTPGAVNACHLSCSALLQDNIADAVACAKRVVRDPQGIRAWVAWRNRCQNRDVRQYVQGCGV [Q76A]	75.1 °C	115 kcal/mol	123 kcal/mol
